This note sets out measurements from publication PMC6596994 (Nature, 2019).

The stoichiometry N is the number of molecules, sites or subunits per partner or assembly. Usually Kd stands for a measure of binding affinity in units of concentration. A low value points to higher affinity.

First the molecules themselves.
B1: Mouse TBK1 (1–657, S172A) (domain or fragment)
chain: MQSTSNHLWLLSDILGQGATANVFRGRHKKTGDLYAVKVFNNISFLRPVDVQMREFEVLKKLNHKNIVKLFAIEEETTTRHKVLIMEFCPCGSLYTVLEEPSNAYGLPESEFLIVLRDVVGGMNHLRENGIVHRDIKPGNIMRVIGEDGQSVYKLTDFGAARELEDDEQFVALYGTEEYLHPDMYERAVLRKDHQKKYGATVDLWSVGVTFYHAATGSLPFRPFEGPRRNKEVMYKIITGKPSGAISGVQKAENGPIDWSGDMPLSCSLSQGLQALLTPVLANILEADQEKCWGFDQFFAETSDVLHRMVIHVFSLQHMTAHKIYIHSYNTAAVFHELVYKQTKIVSSNQELIYEGRRLVLELGRLAQHFPKTTEENPIFVTSREQLNTVGLRYEKISLPKIHPRYDLDGDASMAKAVTGVVCYACRTASTLLLYQELMRKGVRWLVELVKDDYNETVHKKTEVVITLDFCIRNIEKTVKVYEKLMKVNLEAAELGEISDIHTKLLRLSSSQGTIESSLQDISSRLSPGGLLADTWAHQEGTHPRDRNVEKLQVLLNCITEIYYQFKKDKAERRLAYNEEQIHKFDKQKLYYHATKAMSHFSEECVRKYEAFKDKSEEWMRKMLHLRKQLLSLTNQCFDIEEEVSKYQDYTNELQET
B2: p-hSTING (155–379) (domain or fragment)
chain: VAHGLAWSYYIGYLRLILPELQARIRTYNQHYNNLLRGAVSQRLYILLPLDCGVPDNLSMADPNIRFLDKLPQQTGDHAGIKDRVYSNSIYELLENGQRAGTCVLEYATPLQTLFAMSQYSQAGFSREDRLEQAKLFCRTLEDILADAPESQNNCRLIAYQEPADDSSFSLSQEVLRHLRQEEKEEVTVGSLKTSAVPSTSTMSQEPELLISGMEKPLPLRTDFS
B3: human STING CTD (residues 155 to 379, T376E, F378M, S379W), crystallised (domain or fragment)
chain: B2 chain with T222E, F224M, S225W

Data set [1] has as its target T1, human STING CTT (residue 342 to 379, V343W), crystallised (human, UniProt Q86WV6 342-379, V343W).
T1 chain: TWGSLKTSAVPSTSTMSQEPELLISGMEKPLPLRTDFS
As to the kind of experiment: crystal structure.

The data set “crystal structure” deals with the molecule itself. Kind of data set: crystal structure.
In data set [2] the target is B1. Kind of data set: SPR. In general terms: SPR reads the build-up and loss of mass on a sensor chip optically.
In data set [3] the target is T2, Human TBK1 (1–657, S172A) (human, UniProt Q9UHD2 1-657, S172A).
T2 sequence: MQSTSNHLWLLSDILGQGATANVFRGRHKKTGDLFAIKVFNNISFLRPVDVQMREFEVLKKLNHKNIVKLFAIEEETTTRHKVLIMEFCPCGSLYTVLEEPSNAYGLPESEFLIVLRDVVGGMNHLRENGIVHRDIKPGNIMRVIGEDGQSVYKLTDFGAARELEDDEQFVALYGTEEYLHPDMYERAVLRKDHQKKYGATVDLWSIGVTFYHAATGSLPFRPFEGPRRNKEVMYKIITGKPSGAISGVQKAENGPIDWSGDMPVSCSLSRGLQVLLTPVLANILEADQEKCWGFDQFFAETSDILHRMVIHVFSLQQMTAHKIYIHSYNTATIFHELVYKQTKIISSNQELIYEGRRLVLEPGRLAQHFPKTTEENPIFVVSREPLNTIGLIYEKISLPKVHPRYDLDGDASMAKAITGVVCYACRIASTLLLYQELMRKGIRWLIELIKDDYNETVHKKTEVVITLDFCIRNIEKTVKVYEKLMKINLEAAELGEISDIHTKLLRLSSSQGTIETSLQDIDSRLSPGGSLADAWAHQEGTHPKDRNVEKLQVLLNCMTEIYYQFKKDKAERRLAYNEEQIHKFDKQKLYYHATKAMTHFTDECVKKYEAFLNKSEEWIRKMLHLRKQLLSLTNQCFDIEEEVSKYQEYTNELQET
As to the kind of experiment: SPR.

The target of a further data set is T3, Mouse TBK1 (1–657) (mouse, UniProt Q9WUN2 1-657).
T3 sequence: B1 chain with A172S
Kind of data set: SPR.

Data set [4] has as its target B1. Kind of data set: SPR. The source holds these as a separate data set.
Data set [5] addresses T2, Human TBK1 (1–657, S172A). As to the kind of experiment: SPR. This is another data set of the same source.
Data set [6] concerns the target T4, Human TBK1 (residue 1–657, S172E, D135N) (human, UniProt Q9UHD2 1-657, S172E | D135N).
T4 sequence: T2 sequence with D135N, A172E
As to the kind of experiment: crystal structure.

Where a chain is given by its changes, count along the chain named. Names may count otherwise. Like-named read-outs stand apart in the source and are kept apart here.

In the case of B1, the “stoichiometry N” value in data set [1] was 1 TBK1 chain per STING peptide (2:2); in “crystal structure” it was 2.
Consider B2, for which the Kd was 12.5 µM in data set [2]; 20 µM in data set [3]; 13.3 µM with Mouse TBK1 (1–657); 9.1 µM in data set [4]; 11 µM in data set [5].
Consider B3, for which the binding result in data set [6] is given as “binds”.
